From PMC8208096

Molecular target: wildtype human transient receptor potential ankyrin 1 channel subunit (hTRPA1_WT) (human) (UniProt O75762)
Test: co-IP

Row | Substance | normalized fold of enrichment (against HA-tagged WT) [fold]
1 | hTRPA1_27A splice variant, HA-tagged (natural protein) | 0.71
2 | hTRPA1_27B splice variant, HA-tagged (natural protein) | 0.62
